One block for each binder: values may come before it.
How the values were obtained:
[1] = molecular target: human transferrin receptor expressed by nonhematopoietic cancer cells (human) (UniProt P02786); assay: FACS, WiDr cells, 1/5X
[2] = molecular target: human transferrin receptor expressed by nonhematopoietic cancer cells (human) (UniProt P02786); assay: FACS, DLD-1 cells, 1/5X
[3] = molecular target: human transferrin receptor expressed by nonhematopoietic cancer cells (human) (UniProt P02786); assay: FACS, OMC-3 cells, 1/5X
[4] = molecular target: human transferrin receptor expressed by nonhematopoietic cancer cells (human) (UniProt P02786); assay: FACS, COLO205 cells, 1/5X
[5] = molecular target: human transferrin receptor expressed by nonhematopoietic cancer cells (human) (UniProt P02786); assay: FACS, NCI-N87 cells, 1/5X
[6] = molecular target: human transferrin receptor expressed by nonhematopoietic cancer cells (human) (UniProt P02786); assay: FACS, SK-OV-3 cells, 1/5X
[7] = molecular target: T1, human transferrin receptor expressed by normal human cells (RBC, PMN, lymphocytes, monocytes, platelets, … (human, UniProt P02786 1-760)); assay: FACS, PMN, donor D014, 1x
T1 construct: The assay is whole-cell FACS on normal donor cells; also called TfR on normal cells
T1 sequence (P02786 whole entry G142S): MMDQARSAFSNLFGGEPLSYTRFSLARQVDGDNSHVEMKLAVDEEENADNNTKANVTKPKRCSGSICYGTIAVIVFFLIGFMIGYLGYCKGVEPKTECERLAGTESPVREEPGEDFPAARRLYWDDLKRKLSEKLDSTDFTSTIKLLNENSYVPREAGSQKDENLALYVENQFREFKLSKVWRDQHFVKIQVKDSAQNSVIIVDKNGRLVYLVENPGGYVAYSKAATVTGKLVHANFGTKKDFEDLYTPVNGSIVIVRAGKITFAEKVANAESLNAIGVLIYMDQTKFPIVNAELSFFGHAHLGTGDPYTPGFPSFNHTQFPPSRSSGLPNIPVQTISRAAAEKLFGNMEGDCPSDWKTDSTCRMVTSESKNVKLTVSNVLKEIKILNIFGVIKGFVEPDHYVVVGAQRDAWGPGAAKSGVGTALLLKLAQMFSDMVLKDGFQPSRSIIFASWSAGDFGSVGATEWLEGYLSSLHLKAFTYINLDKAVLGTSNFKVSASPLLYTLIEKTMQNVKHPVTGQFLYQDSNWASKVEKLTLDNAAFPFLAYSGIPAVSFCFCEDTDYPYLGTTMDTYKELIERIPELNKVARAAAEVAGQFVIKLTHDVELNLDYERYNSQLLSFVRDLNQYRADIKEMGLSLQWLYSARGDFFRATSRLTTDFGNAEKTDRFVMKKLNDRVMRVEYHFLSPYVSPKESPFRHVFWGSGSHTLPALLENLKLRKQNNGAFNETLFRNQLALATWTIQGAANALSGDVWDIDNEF
Description: (§1) The hyper-immuned serum (Hyp-serum) or the corresponding cell marker antibodies for certain cell types were included as positive controls.
(§2) 1×10⁵ cells were seeded in each well of a v-bottomed 96-well plate and incubated with 50 μl of hybridoma culture supernatant at 1× and 10× dilution, or isotype control antibody mouse IgM, κ (BD™, Cat. No. 557275) at concentration of 1 μg/ml. A 300× dilution of human cell hyper-immune serum was used as binding positive control for all cell types. PE-conjugated anti-human CD41a (Southern Biotech™, Cat. No. 9391-09) was used as a positive control for staining human platelets. Anti-sialyl Lewis x antibody (Millipore™, Cat. No. MAB2096) was used as a positive control for staining human PMN. Anti-human CD31 (Hycult™, Cat. No. HM2039) was used as a positive control for staining HUVEC. After 30 minutes incubation at 4° C., cells were washed twice with 200 μl FACS buffer (1×PBS containing 1% FBS), stained with 50 μl of 1 μg/ml goat F(ab′)2-anti-mouse IgG(H+L)-PE (Southern Biotech™, Cat. No. 1032-09) or 1 μg/ml goat F(ab′)2-anti-mouse IgM(H+L)-PE (Southern Biotech™, Cat. No. 1022-09) in FACS buffer. After 30 minutes of incubation at 4° C., cells were washed twice with FACS buffer and analyzed by flow cytometry (BD LSR, BD Life Sciences).

[8] = molecular target: T1, human transferrin receptor expressed by …; assay: FACS, PMN, donor D102, 1x
Description: (§3) Preparation of PBMC and PMN: The whole blood was diluted with an equal volume of PBS and mixed with 1/10 volume of 15% Dextran solution. […] After centrifugation at 2200 rpm for 15 min (rotor: SORVALL, PN11788 and centrifuge: SORVALL, RT7), PBMC concentrated in the interface, were collected and washed with large volumes of FACS buffer (2% FBS in PBS) for future use. The PMN-rich pellet was collected, from which residual RBC was removed by hypotonic lysis in 0.2% NaCl.
as §2

[9] = molecular target: T1, human transferrin receptor expressed by …; assay: FACS, RBC, donor D016, 1x
Description: as §1, §2

[10] = molecular target: T2, human transferrin receptor expressed by Jurkat cells (human, UniProt P02786 1-760); assay: FACS, Jurkat cells, 1/10X
T2 construct: Endogenous receptor on Jurkat cells; MEM189 was the positive control; also called TfR on T leukemia cell line Jurkat
T2 sequence (P02786 whole entry G142S): as above

[11] = molecular target: T1, human transferrin receptor expressed by …; assay: FACS, PMN, donor D102, 1/10x
Description: as §3, §2

[12] = molecular target: T1, human transferrin receptor expressed by …; assay: FACS, RBC, donor D102, 1/10x
Description: as §1, §2

[13] = molecular target: T1, human transferrin receptor expressed by …; assay: FACS, monocytes, donor D014, 1x
Description: as §1, §2

[14] = molecular target: T1, human transferrin receptor expressed by …; assay: FACS, monocytes, donor D016, 1x
Description: as §1, §2

[15] = molecular target: T1, human transferrin receptor expressed by …; assay: FACS, monocytes, donor D102, 1x
Description: as §3, §2

[16] = molecular target: T1, human transferrin receptor expressed by …; assay: FACS, lymphocytes, donor D005, 1x
Description: as §1, §2

[17] = molecular target: T1, human transferrin receptor expressed by …; assay: FACS, monocytes, donor D014, 1/10x
Description: as §3, §2

[18] = molecular target: T1, human transferrin receptor expressed by …; assay: FACS, monocytes, donor D016, 1/10x
Description: as §1, §2

[19] = molecular target: T1, human transferrin receptor expressed by …; assay: FACS, platelets, donor D102, 1/10x
Description: as §1, §2

[20] = molecular target: T1, human transferrin receptor expressed by …; assay: FACS, lymphocytes, donor D016, 1/10x
Description: as §1, §2

[21] = molecular target: human transferrin receptor expressed by nonhematopoietic cancer cells (human) (UniProt P02786); assay: FACS, OMC-3 cells, 1X
[22] = molecular target: human transferrin receptor expressed by nonhematopoietic cancer cells (human) (UniProt P02786); assay: FACS, SU.86.86 cells, 1X

Chain of human transferrin receptor expressed by nonhematopoietic cancer cells (human) (P02786 whole entry G142S): as above

- MFI [1]: 2460 MFI
- MFI [2]: 2690 MFI
- MFI [3]: 3040 MFI
- MFI [4]: 6340 MFI
- MFI [5]: 4300 MFI
- MFI [6]: 381 MFI
- % positive cell binding [7]: 1%
- % positive cell binding [8]: 1%
- % positive cell binding [9]: 1%
- % of gated cells [10]: < 1%
- % positive cell binding [11]: 1%
- % positive cell binding [12]: < 1%
- % positive cell binding [13]: < 1%
- % positive cell binding [14]: < 1%
- % positive cell binding [15]: 1%
- % positive cell binding [16]: < 1%
- % positive cell binding [17]: 1%
- % positive cell binding [18]: 1%
- % positive cell binding [19]: < 1%
- % positive cell binding [20]: 1%
B1: antibody 122-72 (antibody, V domains shown)
VH: EVQLVESGGGLVQPKGSLKLSCAASGFTFNTYAMNWVRQAPGKGLEWVARIRSKSNNYATYYADSVKDRFTISRDDSQSMLYLQMNNLKTEDTAMYYCVAYGSRNYWGQGTTLTVSS
VL: DIVMTQSPSSLTVTAGEKVTMSCKSSQSLLNSGNQKNYLTWYQQKPGQPPKLLIYWASTRESGVPDRFTGSGSGTDFTLTISSVQAEDLAVYYCQNDYSYPYTFGGGTKLEIKR
notes: Mouse IgM, kappa from a hybridoma; tested as hybridoma culture supernatant; Antibody 60-43 is said to have the same CDRs

- MFI [21]: 3140 MFI
- MFI [1]: 1080 MFI
- MFI [2]: 3900 MFI
- MFI [3]: 2150 MFI
- MFI [22]: 3950 MFI
- MFI [4]: 6160 MFI
- MFI [5]: 5100 MFI
- % positive cell binding [7]: < 1%
- % positive cell binding [8]: 1%
- % positive cell binding [9]: 1%
- % of gated cells [10]: < 1%
- % positive cell binding [11]: 1%
- % positive cell binding [12]: < 1%
- % positive cell binding [13]: < 1%
- % positive cell binding [14]: < 1%
- % positive cell binding [15]: 2%
- % positive cell binding [16]: < 1%
- % positive cell binding [17]: < 1%
- % positive cell binding [18]: < 1%
- % positive cell binding [19]: < 1%
- % positive cell binding [20]: 1%
B2: antibody 6-90 (antibody, mouse IgM, V domains shown)
VH: EVELQQFGIEMVKPGASVKISCKASGYIFTDYHMDWVRQSHGKSLEWIGDIDPKYDRVTYNQKFKGKASLTADKSSSTAYMELRSLTSEDTAVYYCAKTGAYGDYLAYWGQGTLVTVSA
VL: DLVMTQTPLSLPVSLGDQASISCRSSQSLVHSDGNTYFYWYLQKPGQSPKLLIYKVSNRFSGVPDRFSAGGSGTYFTLKISRVEAEDLGVYFCSQTTHFPPTFGGGTKLEIKR
notes: Mouse IgM, kappa from a hybridoma; tested as hybridoma culture supernatant

- MFI [21]: 214 MFI
- MFI [2]: 104 MFI
- MFI [3]: 179 MFI
- MFI [22]: 154 MFI
- MFI [6]: 1970 MFI
- % positive cell binding [7]: < 1%
- % positive cell binding [8]: 1%
- % positive cell binding [9]: 1%
- % of gated cells [10]: < 1%
- % positive cell binding [11]: 1%
- % positive cell binding [12]: < 1%
- % positive cell binding [13]: < 1%
- % positive cell binding [14]: 1%
- % positive cell binding [15]: 3%
- % positive cell binding [16]: < 1%
- % positive cell binding [17]: < 1%
- % positive cell binding [18]: < 1%
- % positive cell binding [19]: < 1%
- % positive cell binding [20]: 1%
B3: antibody 55-31 (antibody, mouse IgM, V domains shown)
VH: QVQLQQPGAELVKPGTSVKLSCKASGYNFTSYWINWVKLRPGQGLEWIGDIYPGSGSTNYNEKFKSKATLTVDTSSSTAYMQLSSLASEDSALYYCARSAYRYDWFAYWGQGTLVTVSA
VL: DIQMTQSPASLSVSVGETVTITCRASENIYSNLAWYQQKQGKSPQLLVYAATNLADGVPSRFSGSGSGTQYSLKINSLQSEDFGSYYCQHFWGTPYTFGGGTKLEIKR
notes: as for B2

— US20130177579A1 (BIOALLIANCE C V, published 2013)
